Assay results: article PMC9730764

How the values were obtained:
[1] = target: Bacillus subtilis cysteine desulfurase SufS (B. subtilis) (UniProt O32164)
[2] = target: Staphylococcus aureus cysteine desulfurase SufS (S. aureus USA300_LAC)

Which stimulation factor of SufS cysteine desulfurase activity by SufU [1] does the source give for “Staphylococcus aureus sulfurtransferase SufU (from UniProt A0ABV4SS75 2-153) (natural protein)” here?
Its stimulation factor of SufS cysteine desulfurase activity by SufU is 15.

What about the stimulation factor of SufS cysteine desulfurase activity by SufU [2] of the same substance?
The stimulation factor of SufS cysteine desulfurase activity by SufU was 1.5.
